# Reference: publication PMC12501291, “Cancer-associated fibroblasts expressing FSTL3 promote vasculogenic mimicry formation and drive colon cancer malignancy” (Cell Death & Disease, 2025)
# B1: FSTL3-targeting antibodies (aFSTL3) (antibody, V domains shown)
# VH: EVQLQQSAAELARPGASVKMSCKASGYSFTTYTMHWVKQRPGQGLEWIGYIHPSSGYTDHIQKFKDKTILTADKSSSTAYMQLNSLTSEDSAVYYCARLDYGYWGQGTTLTVSS
# VL: DILMTQTPLSLPVSLGDQASISCRSSQSIVHSNGNTYLEWYLQKPGQSPKLLIYKVSNRFSGVPDRFTGSGSGTDFTLKISRVEAADLGVYYCFQSSHIPPTFGGGTKLEIK
# notes: cloned into the PTT5-human IgG1 CH vector; cloned into the PTT5-human kappa CL vector; Human IgG1 CH, human kappa CL; source: 293F cells, transfected, purified (Protein A); made by SGE BIOTECH
# Molecular target: T1, FSTL3-FC (biotin) (UniProt O95633, biotin)
# T1 construct: FSTL3 gene fused with a human Fc fragment in pCDNA3.4; also called biotinylated FSTL3-FC; source: 293F cells, transfected, purified (Protein A), biotinylated, ultrafiltration; made by SGE BIOTECH
# T1 sequence (O95633 27-263): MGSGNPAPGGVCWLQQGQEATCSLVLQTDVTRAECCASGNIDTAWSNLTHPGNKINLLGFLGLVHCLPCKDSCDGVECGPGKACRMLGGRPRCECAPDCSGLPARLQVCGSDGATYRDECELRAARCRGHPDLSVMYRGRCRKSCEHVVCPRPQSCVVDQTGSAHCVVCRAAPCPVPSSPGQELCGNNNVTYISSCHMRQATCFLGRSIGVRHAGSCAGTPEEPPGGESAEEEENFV
# Assay: ELISA; sandwich ELISA with biotinylated FSTL3-FC, aFSTL3 and Activin A-mFC; in vitro
# Conditions: both partners purified
binder,measurement,value
B1,binding result,binds
